From US20220402983A1 (Janssen / Centocor, published 2022)
*1 amine or outer side, *2 acyl side, *3 side chain or, on linkers, in order; H or OH if unused. Bridges are numbered along the chain shown (N, C = ends). [ ]: non-standard residue; d: D form. The star is where a group is joined. Phe(4-OMe) = COc1ccc(C[C@H](N[*:1])C(=O)[*:2])cc1; Trp(7-Me) = Cc1cccc2c(C[C@H](N)C(=O)O)c[nH]c12; 2Nal = N[C@@H](Cc1ccc2ccccc2c1)C(=O)O; Propanoyl(3,3,3-F3) = O=C(CC(F)(F)F)*; AEF = NCCOc1ccc(C[C@H](N)C(=O)O)cc1; αMeF = C[C@](N)(Cc1ccccc1)C(=O)O; Pen = CC(C)(S)[C@H](N)C(=O)O; αMeK = C[C@](N)(CCCCN)C(=O)O; Thp = NC1(C(=O)O)CCOCC1; Abu = CC[C@H](N)C(=O)O; Propionyl = CCC(=O)*

T1: human IL-23R (interleukin-23 receptor) (human, UniProt Q5VWK5 24-629)
T1 sequence (looked up): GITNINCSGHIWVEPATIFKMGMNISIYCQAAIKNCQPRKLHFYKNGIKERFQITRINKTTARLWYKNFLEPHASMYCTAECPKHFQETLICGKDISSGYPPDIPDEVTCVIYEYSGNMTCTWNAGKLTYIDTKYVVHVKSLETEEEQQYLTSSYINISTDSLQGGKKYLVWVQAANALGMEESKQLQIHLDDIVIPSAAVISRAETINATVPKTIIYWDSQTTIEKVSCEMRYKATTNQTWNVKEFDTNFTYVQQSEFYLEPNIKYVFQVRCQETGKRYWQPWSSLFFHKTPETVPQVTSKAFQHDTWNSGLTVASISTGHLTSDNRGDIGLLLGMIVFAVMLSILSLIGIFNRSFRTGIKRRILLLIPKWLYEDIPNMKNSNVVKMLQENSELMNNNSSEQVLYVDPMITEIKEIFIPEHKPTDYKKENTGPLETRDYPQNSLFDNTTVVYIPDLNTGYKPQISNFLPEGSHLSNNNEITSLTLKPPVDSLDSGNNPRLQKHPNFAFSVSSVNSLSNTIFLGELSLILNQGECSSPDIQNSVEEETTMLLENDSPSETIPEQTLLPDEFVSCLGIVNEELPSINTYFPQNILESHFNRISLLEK


Tests used:
[1] = biological target: T1, human IL-23R (interleukin-23 receptor); assay: cell-based or functional assay
[2] = biological target: T1, human IL-23R (interleukin-23 receptor); assay: cell-based or functional assay; remark: listed apart in the source

Row | PBMC pSTAT3 IC50 (nM) [1] [nM] | pStat3 HTRF (nM), IC50, DB cells IL23R pSTAT3 cell assay [1] [nM] | NK Cell Assay (nM), IC50, IFN-gamma after IL-23 and IL-18 [2] [nM] | Binder
1 | 3.3 | 0.206 | 1.46 | Ac-[dR][Pen]NT[Trp(7-Me)]K(Ac)[Pen][AEF][2Nal][Thp]EN[Thp]-NH2 (disulfide 2-7; SMILES CC(=O)NCCCC[C@@H]1NC(=O)[C@H](Cc2c[nH]c3c(C)cccc23)NC(=O)[C@H]([C@@H](C)O)NC(=O)[C@H](CC(N)=O)NC(=O)[C@@H](NC(=O)[C@@H](CCCNC(=N)N)NC(C)=O)C(C)(C)SSC(C)(C)[C@@H](C(=O)N[C@@H](Cc2ccc(OCCN)cc2)C(=O)N[C@@H](Cc2ccc3ccccc3c2)C(=O)NC2(C(=O)N[C@@H](CCC(=O)O)C(=O)N[C@@H](CC(N)=O)C(=O)NC3(C(N)=O)CCOCC3)CCOCC2)NC1=O) [Compound No. 92]
2 | 6.4 | 0.353 | 2.33 | Ac-[dR][Pen]NT[Trp(7-Me)]K(Ac)[Pen][AEF][2Nal][Thp]EN[αMeF]-NH2 (disulfide 2-7; SMILES CC(=O)NCCCC[C@@H]1NC(=O)[C@H](Cc2c[nH]c3c(C)cccc23)NC(=O)[C@H]([C@@H](C)O)NC(=O)[C@H](CC(N)=O)NC(=O)[C@@H](NC(=O)[C@@H](CCCNC(=N)N)NC(C)=O)C(C)(C)SSC(C)(C)[C@@H](C(=O)N[C@@H](Cc2ccc(OCCN)cc2)C(=O)N[C@@H](Cc2ccc3ccccc3c2)C(=O)NC2(C(=O)N[C@@H](CCC(=O)O)C(=O)N[C@@H](CC(N)=O)C(=O)N[C@@](C)(Cc3ccccc3)C(N)=O)CCOCC2)NC1=O) [Compound No. 77]
3 | 8.9 | 0.787 | 2.69 | Ac-[Pen]NT[Trp(7-Me)]K(Ac)[Pen][AEF][2Nal][αMeK]K(Ac)N[Thp]-NH2 (disulfide 1-6; SMILES CC(=O)NCCCC[C@@H]1NC(=O)[C@H](Cc2c[nH]c3c(C)cccc23)NC(=O)[C@H]([C@@H](C)O)NC(=O)[C@H](CC(N)=O)NC(=O)[C@@H](NC(C)=O)C(C)(C)SSC(C)(C)[C@@H](C(=O)N[C@@H](Cc2ccc(OCCN)cc2)C(=O)N[C@@H](Cc2ccc3ccccc3c2)C(=O)N[C@@](C)(CCCCN)C(=O)N[C@@H](CCCCNC(C)=O)C(=O)N[C@@H](CC(N)=O)C(=O)NC2(C(N)=O)CCOCC2)NC1=O) [Compound No. 75]
4 |  | 2.27 | 13.1 | Ac-[Abu]QT[Trp(7-Me)]K(Ac)C[AEF][2Nal][αMeK]K(Ac)N[αMeF]-NH2 (thioether 1-6) [Compound No. 66]
5 | 11 | 1.5 | 4.01 | Ac-[Pen]NT[Trp(7-Me)]K(Ac)[Pen][AEF][2Nal][αMeK]K(Ac)N[αMeF]-NH2 (disulfide 1-6; SMILES CC(=O)NCCCC[C@@H]1NC(=O)[C@H](Cc2c[nH]c3c(C)cccc23)NC(=O)[C@H]([C@@H](C)O)NC(=O)[C@H](CC(N)=O)NC(=O)[C@@H](NC(C)=O)C(C)(C)SSC(C)(C)[C@@H](C(=O)N[C@@H](Cc2ccc(OCCN)cc2)C(=O)N[C@@H](Cc2ccc3ccccc3c2)C(=O)N[C@@](C)(CCCCN)C(=O)N[C@@H](CCCCNC(C)=O)C(=O)N[C@@H](CC(N)=O)C(=O)N[C@@](C)(Cc2ccccc2)C(N)=O)NC1=O) [Compound No. 76]

The next lines start with the binder.

Row | Binder | PBMC pSTAT3 IC50 (nM) [1] [nM] | pStat3 HTRF (nM), IC50, DB cells IL23R pSTAT3 cell assay [1] [nM] | NK Cell Assay (nM), IC50, IFN-gamma after IL-23 and IL-18 [2] [nM]
6 | Ac-[Abu]QT[Trp(7-Me)]K(Ac)C[AEF][2Nal][αMeK]K(Ac)N[dK]-NH2 (thioether 1-6) [Compound No. 64] |  | 0.889 | 5.44
7 | Propionyl-[dR][Pen]QTWQ[Pen][Phe(4-OMe)][2Nal][Thp]EN[Thp]-NH2 (disulfide 2-7; SMILES CCC(=O)N[C@H](CCCNC(=N)N)C(=O)N[C@@H]1C(=O)N[C@@H](CCC(N)=O)C(=O)N[C@@H]([C@@H](C)O)C(=O)N[C@@H](Cc2c[nH]c3ccccc23)C(=O)N[C@@H](CCC(N)=O)C(=O)N[C@H](C(=O)N[C@@H](Cc2ccc(OC)cc2)C(=O)N[C@@H](Cc2ccc3ccccc3c2)C(=O)NC2(C(=O)N[C@@H](CCC(=O)O)C(=O)N[C@@H](CC(N)=O)C(=O)NC3(C(N)=O)CCOCC3)CCOCC2)C(C)(C)SSC1(C)C) [Compound No. 4] |  | 4.17 | 32.1
8 | Ac-[Abu]QT[Trp(7-Me)]K(Ac)C[AEF][2Nal][αMeK]K(Ac)N[dL]-NH2 (thioether 1-6) [Compound No. 65] |  | 0.966 | 6.03
9 | {Propanoyl(3,3,3-F3)}-[dR][Pen]QTWQ[Pen][AEF][2Nal][Thp]EN[Thp]-NH2 (disulfide 2-7; SMILES C[C@@H](O)[C@@H]1NC(=O)[C@H](CCC(N)=O)NC(=O)[C@@H](NC(=O)[C@@H](CCCNC(=N)N)NC(=O)CC(F)(F)F)C(C)(C)SSC(C)(C)[C@@H](C(=O)N[C@@H](Cc2ccc(OCCN)cc2)C(=O)N[C@@H](Cc2ccc3ccccc3c2)C(=O)NC2(C(=O)N[C@@H](CCC(=O)O)C(=O)N[C@@H](CC(N)=O)C(=O)NC3(C(N)=O)CCOCC3)CCOCC2)NC(=O)[C@H](CCC(N)=O)NC(=O)[C@H](Cc2c[nH]c3ccccc23)NC1=O) [Compound No. 5] | 4.7 | 2.94 | 10.3
